Our source for the Kd values is article PMC5601406 (2017).

The target in this test is SN (Staphylococcus nuclease scaffold protein) (Staphylococcus aureus, UniProt Q5HHM4). Description: ELISA. In general terms: An ELISA detects its analyte on a solid surface through an enzyme-linked reagent.

B1: SmpB (protein)
chain: MSKKNSKNKAGSNTIALNRSARHEYFIEEKIEAGLSLQGWEVKSLRAGKANISEAYVIFRDGEAYLFGSSFLPLQAASSHVVCDPTRTRKLLLSRRELDKLESLIARQGYTVVPLALYWKQCWVKVEIGLVKGKKEHDKREDTKAREWDREKARIMKNKHRG
The molecule B1 had a dissociation constant Kd of 1380 nM.

As usually defined, the Kd is the concentration at which binding is half-saturated. A high value points to weaker binding.
